The results in this text go back to paper PMC8908386.

The target of this assay is FLAG-MTA1^C (UniProt Q13330). In words: affinity purification with mass spectrometry.
Chain of UniProt Q13330 (Q13330 449-715): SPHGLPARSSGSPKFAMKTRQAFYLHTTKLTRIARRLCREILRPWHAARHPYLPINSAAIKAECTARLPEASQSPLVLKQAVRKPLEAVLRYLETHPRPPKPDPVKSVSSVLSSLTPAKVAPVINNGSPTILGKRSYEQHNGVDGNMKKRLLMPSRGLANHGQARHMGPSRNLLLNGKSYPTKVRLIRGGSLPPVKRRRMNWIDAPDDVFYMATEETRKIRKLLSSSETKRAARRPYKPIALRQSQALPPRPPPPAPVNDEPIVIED

The substance “HA-RBBP4 (from UniProt Q09028 1-425) (natural protein)” showed a stoichiometry N (RBBP per MTA^C) of 2.5.
